Assay [1] deals with pGBT9-Fas (191-319AA): intracellular domain of Fas/APO-1 fused to the GAL4 DNA-binding domain (human). Kind of assay: yeast two-hybrid β-galactosidase filter assay.
The target in assay [2] is P53 (yeast two-hybrid control). Put plainly: yeast two-hybrid β-galactosidase filter assay (control pair).
Chain of P53 (yeast two-hybrid control) (P02340 72-390): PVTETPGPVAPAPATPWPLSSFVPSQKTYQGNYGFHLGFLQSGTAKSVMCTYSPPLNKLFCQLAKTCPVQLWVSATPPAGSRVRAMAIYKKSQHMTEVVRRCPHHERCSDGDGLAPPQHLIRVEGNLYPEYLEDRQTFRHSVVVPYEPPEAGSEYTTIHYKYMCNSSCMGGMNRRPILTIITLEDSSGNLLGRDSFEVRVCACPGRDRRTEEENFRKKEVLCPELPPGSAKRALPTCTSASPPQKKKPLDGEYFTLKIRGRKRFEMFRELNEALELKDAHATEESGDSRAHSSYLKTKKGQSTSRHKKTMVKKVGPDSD

“Sentrin-1 (SEQ ID NO:2) fused to the Gal4 activation-domain (from UniProt A7WLH8 1-101)” showed a time for the colony to turn blue in assay [1] of less than 3 h.

“Clone 68: in-frame fusion of the Gal4 activation domain to the death domain of FADD/MORT1 (from UniProt Q13158 80-208)”: in assay [1], the time for the colony to turn blue was less than 3 h.

With “SV40 T antigen (yeast two-hybrid control) (from UniProt P03070 84-708)”, the time for the colony to turn blue in assay [2] is less than 30 min.

Source of the values: US7179650.
